Laboratory results as given in patent US20180044653A1, “Mutant Yeast Strain Capable of Degrading Cellobiose” (Institut National de la Recherche Agronomique, priority 2015, published 2018).

Experiments:
[1] = substrate: OC[C@H]1O[C@@H](O[C@H]2C(O)O[C@H](CO)[C@@H](O)[C@@H]2O)[C@H](O)[C@@H](O)[C@@H]1O; assay: Enzyme kinetics on glycoside substrates, released glucose, Michaelis-Menten (Bgl1-His6); type: biochemical, Yarrowia lipolytica; conditions: other: apparent, 0.120 nM Bgl1-His6, mean of three experiments, SD below 10%, pH 7.4, 28.0 °C
Experimental: (§1) Y. lipolytica JMY1212 overproducing Bgl1-His6 and Bgl2 were grown in 200 mL YTD medium at 130 rpm, 28° C. for 36 h before centrifugation at 8,000×g for 5 min. For purification of Bgl1-His6, the cell pellet was washed, suspended in 50 mL phosphate buffer (50 mM, pH 7.4) and homogenized over a 3-min period using a MP FastPrep-24 Instrument. After centrifugation (8,000×g for 5 min at 4° C.), the supernatant was applied to 2 mL of TALON Metal Affinity Resin (Clontech Takara-Bio, Kyoto, Japan) and protein was eluted using imidazole buffer according to the manufacturer's instructions.
(§2) When using aryl-substrates, the standard assay method was employed, simply replacing pNPGlc by another substrate as appropriate. For oligosaccharides, the release of glucose was quantified using an enzyme kit (D-Fructose/D-Glucose Assay Kit, liquid stable, Megazyme). […] Initial rates were fitted to the Michaelis-Menten kinetic equation using a nonlinear regression (SigmaPlot 10) to extract the apparent KM and kcat (Segel, 1993).

[2] = substrate: OC[C@H]1O[C@@H](O[C@H]2[C@H](O)[C@@H](O)[C@H](O[C@H]3[C@H](O)[C@@H](O)[C@H](O[C@H]4[C@H](O)[C@@H](O)[C@H](O[C@H]5[C@H](O)[C@@H](O)[C@H](O[C@H]6[C@H](O)[C@@H](O)C(O)O[C@@H]6CO)O[C@@H]5CO)O[C@@H]4CO)O[C@@H]3CO)O[C@@H]2CO)[C@H](O)[C@@H](O)[C@@H]1O; assay: as above; type: biochemical, Yarrowia lipolytica; conditions: other: apparent, 0.120 nM Bgl1-His6, mean of three experiments, SD below 10%, pH 7.4, 28.0 °C
Experimental: as §1, §2

[3] = substrate: OC[C@H]1O[C@@H](O[C@H]2[C@H](O)[C@@H](O)C(O)O[C@@H]2CO)[C@H](O)[C@@H](O)[C@@H]1O; assay: as above; type: biochemical, Yarrowia lipolytica; conditions: other: apparent, 0.120 nM Bgl1-His6, mean of three experiments, SD below 10%, pH 7.4, 28.0 °C
Experimental: as §1, §2

[4] = substrate: OC[C@H]1O[C@@H](O[C@H]2[C@H](O)[C@@H](O)[C@H](O[C@H]3[C@H](O)[C@@H](O)C(O)O[C@@H]3CO)O[C@@H]2CO)[C@H](O)[C@@H](O)[C@@H]1O; assay: as above; type: biochemical, Yarrowia lipolytica; conditions: other: apparent, 0.120 nM Bgl1-His6, mean of three experiments, SD below 10%, pH 7.4, 28.0 °C
Experimental: as §1, §2

[5] = substrate: CCCCCCCCO[C@@H]1O[C@H](CO)[C@@H](O)[C@H](O)[C@H]1O; assay: as above; type: biochemical, Yarrowia lipolytica; conditions: other: apparent, 0.120 nM Bgl1-His6, mean of three experiments, SD below 10%, pH 7.4, 28.0 °C
Experimental: as §1, §2

[6] = substrate: OC[C@H]1O[C@@H](O[C@H]2[C@H](O)[C@@H](O)[C@H](O[C@H]3[C@H](O)[C@@H](O)[C@H](O[C@H]4[C@H](O)[C@@H](O)[C@H](O[C@H]5[C@H](O)[C@@H](O)C(O)O[C@@H]5CO)O[C@@H]4CO)O[C@@H]3CO)O[C@@H]2CO)[C@H](O)[C@@H](O)[C@@H]1O; assay: as above; type: biochemical, Yarrowia lipolytica; conditions: other: apparent, 0.120 nM Bgl1-His6, mean of three experiments, SD below 10%, pH 7.4, 28.0 °C
Experimental: as §1, §2

[7] = substrate: OC[C@H]1O[C@@H](O[C@H]2[C@H](O)[C@@H](CO)OC(O)[C@@H]2O)[C@H](O)[C@@H](O)[C@@H]1O; assay: as above; type: biochemical, Yarrowia lipolytica; conditions: other: apparent, 0.120 nM Bgl1-His6, mean of three experiments, SD below 10%, pH 7.4, 28.0 °C
Experimental: as §1, §2

[8] = substrate: OC[C@H]1O[C@@H](O[C@H]2[C@H](O)[C@@H](O)[C@H](O[C@H]3[C@H](O)[C@@H](O)[C@H](O[C@H]4[C@H](O)[C@@H](O)C(O)O[C@@H]4CO)O[C@@H]3CO)O[C@@H]2CO)[C@H](O)[C@@H](O)[C@@H]1O; assay: as above; type: biochemical, Yarrowia lipolytica; conditions: other: apparent, 0.120 nM Bgl1-His6, mean of three experiments, SD below 10%, pH 7.4, 28.0 °C
Experimental: as §1, §2

[9] = substrate: OC[C@H]1O[C@@H](OC[C@H]2OC(O)[C@H](O)[C@@H](O)[C@@H]2O)[C@H](O)[C@@H](O)[C@@H]1O; assay: as above; type: biochemical, Yarrowia lipolytica; conditions: other: apparent, 0.120 nM Bgl1-His6, mean of three experiments, SD below 10%, pH 7.4, 28.0 °C
Experimental: as §1, §2

[10] = substrate: OC[C@H]1O[C@@H](O[C@H]2[C@H](O)[C@@H](O)C(O)O[C@@H]2CO)[C@H](O)[C@@H](O)[C@@H]1O; assay: Enzyme kinetics on glycoside substrates, released glucose, Michaelis-Menten (Bgl2); type: biochemical, Yarrowia lipolytica; conditions: other: apparent, 0.13 nM Bgl2, mean of three experiments, SD below 10%
[11] = substrate: CCCCCCCCO[C@@H]1O[C@H](CO)[C@@H](O)[C@H](O)[C@H]1O; assay: as above; type: biochemical, Yarrowia lipolytica; conditions: other: apparent, 0.13 nM Bgl2, mean of three experiments, SD below 10%
[12] = substrate: OC[C@H]1O[C@@H](O[C@H]2[C@H](O)[C@@H](O)[C@H](O[C@H]3[C@H](O)[C@@H](O)[C@H](O[C@H]4[C@H](O)[C@@H](O)[C@H](O[C@H]5[C@H](O)[C@@H](O)C(O)O[C@@H]5CO)O[C@@H]4CO)O[C@@H]3CO)O[C@@H]2CO)[C@H](O)[C@@H](O)[C@@H]1O; assay: as above; type: biochemical, Yarrowia lipolytica; conditions: other: apparent, 0.13 nM Bgl2, mean of three experiments, SD below 10%
[13] = substrate: OC[C@H]1O[C@@H](O[C@H]2C(O)O[C@H](CO)[C@@H](O)[C@@H]2O)[C@H](O)[C@@H](O)[C@@H]1O; assay: purified protein, by the assay type; conditions: other: apparent; 0.13 nM Bgl2; released glucose; mean of three experiments, SD below 10%
[14] = substrate: OC[C@H]1O[C@@H](O[C@H]2[C@H](O)[C@@H](O)[C@H](O[C@H]3[C@H](O)[C@@H](O)[C@H](O[C@H]4[C@H](O)[C@@H](O)[C@H](O[C@H]5[C@H](O)[C@@H](O)[C@H](O[C@H]6[C@H](O)[C@@H](O)C(O)O[C@@H]6CO)O[C@@H]5CO)O[C@@H]4CO)O[C@@H]3CO)O[C@@H]2CO)[C@H](O)[C@@H](O)[C@@H]1O; assay: purified protein, by the assay type; conditions: other: apparent; 0.13 nM Bgl2; released glucose; mean of three experiments, SD below 10%
[15] = substrate: OC[C@H]1O[C@@H](O[C@H]2[C@H](O)[C@@H](O)[C@H](O[C@H]3[C@H](O)[C@@H](O)C(O)O[C@@H]3CO)O[C@@H]2CO)[C@H](O)[C@@H](O)[C@@H]1O; assay: purified protein, by the assay type; conditions: other: apparent; 0.13 nM Bgl2; released glucose; mean of three experiments, SD below 10%
[16] = substrate: OC[C@H]1O[C@@H](O[C@H]2[C@H](O)[C@@H](CO)OC(O)[C@@H]2O)[C@H](O)[C@@H](O)[C@@H]1O; assay: purified protein, by the assay type; conditions: other: apparent; 0.13 nM Bgl2; released glucose; mean of three experiments, SD below 10%
[17] = substrate: OC[C@H]1O[C@@H](O[C@H]2[C@H](O)[C@@H](O)[C@H](O[C@H]3[C@H](O)[C@@H](O)[C@H](O[C@H]4[C@H](O)[C@@H](O)C(O)O[C@@H]4CO)O[C@@H]3CO)O[C@@H]2CO)[C@H](O)[C@@H](O)[C@@H]1O; assay: purified protein, by the assay type; conditions: other: apparent; 0.13 nM Bgl2; released glucose; mean of three experiments, SD below 10%
[18] = substrate: OC[C@H]1O[C@@H](OC[C@H]2OC(O)[C@H](O)[C@@H](O)[C@@H]2O)[C@H](O)[C@@H](O)[C@@H]1O; assay: purified protein, by the assay type; conditions: other: apparent; 0.13 nM Bgl2; released glucose; mean of three experiments, SD below 10%

B1: Yarrowia lipolytica β-glucosidase Bgl1-His6 (YALI_BGL1, YALI0F16027g, SEQ ID NO: 4; mature SEQ ID NO: 1), His6-tagged (Yarrowia lipolytica CLIB122) (protein)
chain: SPDWYPTPEIGSITSDWADALGESMDILAQLTLPEKVNITTGTGWRGGQCVGNTGAVPRLGIKGLCLQDGPLGVRFADFVNVFPCQNAMAATFDRILVHQRGTAIGRQSRLKGVDVHLGPVVGPLGRHATGGRNWEGFSPDPYLSGKLAFEAILGVQEEGVLATIKHFIGNEQEHYRRAEEWRDGFGFKDLKDAVSSNIEDRALHELYMWPFADAVRANVGSVMCSYNYVNGTQACQNSDLLNGKLKSELGFQGFVMSDWFAQGSGVSNALAGMDMSMPGNDVDELETVFWGEQLTRMVANGTLPEARLDDMVLRILTPLIYFGIDDRTPNFSSFVDTTVGSPHPAAKHSKKVKDVITNYHLDVRDQFAANVALDSARGAVVLLFNDGILPLKNISAIGVFGVGSRLGPNGAVCGENMQCSDGALIEGWGSGTAYPTEYESPYEALHKKASLLEVSVTGTTESWDMRLPLELAGDTDVNIVYVLANSGESTANVDKNLGDRRNVSLWHNGDELINTVASQGQTVVVVTTVGQVDMTAWLNHPNISAVLLTAPAGDYGGKAIADVLFGEVNPSGKLPYTIAANTSDYIPIVTKIPRDGAPQSDFVEGIYLDYKWYDKFERTPLYEFGYGLSYTTYSFSNLHLDVKEISEFLPPRPVPVQVTKPKMTNIDIEDLYVPNDFKMIDGLVYPWILNASAPLADSQTQFPFANGAGHVSDASGGVGGHPWLWSNAVTVTHNTTNCGDVAGRVVSQLYVAFPETLIDSPPVQLRGFDKSKLLNPGESQMTEYNLNWRDLAIWDVELQSWRVQRGEYSVYIGHSSREFELCETFTL
Km [1]: 2.25 mM
kcat [1]: 28.4 s⁻¹
kcat/Km [1]: 14800 M⁻¹ s⁻¹
Km [2]: 3.01 mM
kcat [2]: 31.5 s⁻¹
kcat/Km [2]: 10500 M⁻¹ s⁻¹
Km [3]: 0.26 mM
kcat [3]: 21.1 s⁻¹
kcat/Km [3]: 81100 M⁻¹ s⁻¹
Km [4]: 0.43 mM
kcat [4]: 20.5 s⁻¹
kcat/Km [4]: 47700 M⁻¹ s⁻¹
Km [5]: 0.86 mM
kcat [5]: 32.8 s⁻¹
kcat/Km [5]: 38100 M⁻¹ s⁻¹
Km [6]: 2.18 mM
kcat [6]: 29.5 s⁻¹
kcat/Km [6]: 13500 M⁻¹ s⁻¹
Km [7]: 0.68 mM
kcat [7]: 75.6 s⁻¹
kcat/Km [7]: 111000 M⁻¹ s⁻¹
Km [8]: 1.89 mM
kcat [8]: 30.9 s⁻¹
kcat/Km [8]: 16300 M⁻¹ s⁻¹
Km [9]: 1.16 mM
kcat [9]: 43.6 s⁻¹
kcat/Km [9]: 37600 M⁻¹ s⁻¹

B2: Yarrowia lipolytica β-glucosidase Bgl2 (YALI_BGL2, YALI0B14289g, SEQ ID NO: 6; mature SEQ ID NO: 2), native (Yarrowia lipolytica CLIB122) (protein)
chain: DPFSDKDAYKHSPPYYPAPEIGRVPTDLRWRAALKVAQGMVANMTLLEKVNITTGTGWEMGPCVGNTGTVERLGIKSLCLQDGPLGIRFADLITTFPAGITIASTFSRQLVRERGAAMGRENRRKGVDITLSPVVGPLGRHANGGRIWEGFSADPYLAGKLAAEAVTGIQGQNVMAVVKHMVGNEQEHFRQLGEWQGFGFKDLKQPLSSNIDDRTLNEAYLWPFADAVRANVGSVMCSYQQINGSQGCQNAHILNGKLKEEMGFQGFVMSDWLAQRSGVASVLAGLDMSMPGDGLVWADGVPLMGYELTRSVLNGTIDESRVDDMVTRILTPILYLSITPTDPNFSSWTNDTTSYKYYGAKAGGNVTVNRHIDVRDQYTTKAALDGANAALVLLKNEKKTLPLNPTNIGNLNIFGIGSKTGPLGAVCGENMQCSDGALIEGWGSGSVYPTDYQSPYDAIKERASKDNITIGGTTQSWGNLSNVEILSAAADASVVFVLSDSGESTGIVDGNIGDRNNLTLWHNGDEVVKAVASKNPNTIVVVTTVGPVNLEKWIDNPNVTAVLLTGPAGDFGGRAAASILFGDIAPSGKLPFTIAKNDTDYIPLTTKIPEDGLPQDYFTEGTLLDYKRFDENQVTPRFEFGYGLSYSNITVENLEARYAFPSIPEFLPTPFAPSNPNKPKNAFTPHANESVFPSDIDPLNKYVYPYLNDTSEIFSNETHYPYPEGYSSEQSNSTNINGGAVGGNPALWLSAVYIVHSVSNYGPYDTGVVTQMYIAFPQDNDDLKTAPRQLRGFERSELKVGERQGILYDVQWRDLAVWDVKLQSWRVQRGEYKVYVGHSSRDFVLTTSFTLK
Km [10]: 0.79 mM
kcat [10]: 5.1 s⁻¹
kcat/Km [10]: 6500 M⁻¹ s⁻¹
Km [11]: 1.3 mM
kcat [11]: 111.1 s⁻¹
kcat/Km [11]: 85200 M⁻¹ s⁻¹
Km [12]: 2.24 mM
kcat [12]: 27.5 s⁻¹
kcat/Km [12]: 12300 M⁻¹ s⁻¹
Km [13]: 2.4 mM
kcat [13]: 41.2 s⁻¹
kcat/Km [13]: 17200 M⁻¹ s⁻¹
Km [14]: 2.37 mM
kcat [14]: 30.5 s⁻¹
kcat/Km [14]: 12900 M⁻¹ s⁻¹
Km [15]: 0.99 mM
kcat [15]: 9.5 s⁻¹
kcat/Km [15]: 9600 M⁻¹ s⁻¹
Km [16]: 0.89 mM
kcat [16]: 211.1 s⁻¹
kcat/Km [16]: 237000 M⁻¹ s⁻¹
Km [17]: 1.86 mM
kcat [17]: 20.6 s⁻¹
kcat/Km [17]: 11000 M⁻¹ s⁻¹
Km [18]: 1.84 mM
kcat [18]: 186.5 s⁻¹
kcat/Km [18]: 101000 M⁻¹ s⁻¹
